Results published in patent publication US20090227507A1, “Angiotensin (1-7) Dosage Forms and Uses Thereof” (UNIVERSITY OF SOUTHERN CALIFORNIA, priority 2008, published 2009).

Assay: Hematology profile (CBC with differential, platelet count) in healthy men;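 for Platelet Count, Median Change from Baseline: Thousands of platelets per mm³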;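 for Platelet Count, Median: Thousands of platelets per mm³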
Assay type: in vivo, human
Description: Pharmacological Effect: The following evaluations (under efficacy and safety in the protocol) were performed: • Effects on the number of mature blood cells: • 1. CBC (with differential), platelet count, reticulocyte count. • Effects on early hematopoietic progenitor cells and mature lymphocyte subsets in the periphery: • 1. Flow cytometry to evaluate frequency of peripheral blood progenitor cells (eg, CD34^+) and lymphocyte subsets (eg, CD3, CD4, CD8) in peripheral blood. • 2. Collection of blood for later possible culture for progenitor cells (eg, colony forming units-granulocyte/macrophage [CFU-GM]) to evaluate potential effects on CD34^+ hematopoietic progenitor cells in peripheral blood. • 3.
The effect of USB003 on the number of mature blood cells was assessed by the complete blood count with differential, platelet and reticulocyte counts. The effects on early hematopoietic progenitor cells and mature lymphocyte subsets in the periphery were assessed by flow cytometry. In addition, blood was collected and processed to enable culture of progenitors at a later time.
Red blood cell (RBC) count, RBC indices, white blood cell count (WBC) with differential, reticulocyte count, platelet count, hemoglobin (Hb), hematocrit (Hct), plasma hemoglobin, peripheral flow cytometry, including CD34^+, flow cytometry for enumeration of CD3, CD4, and CD8 lymphocytes, and culture for progenitor cells in peripheral blood including colony-forming units-granulocyte/macrophage (CFU-GM).

[1] = 200 μg/kg, N = 9, baseline to Day 8
[2] = 200 μg/kg, N = 9, baseline to Day 20
[3] = 300 μg/kg, N = 8, baseline to Day 8

## Asp-Arg-Val-Tyr-Ile-His-Pro [USB003]
200 ug/kg and 300 ug/kg, at 20 days
  absolute neutrophil concentrations: apparent dose-related increase
200 μg/kg dose group, Day 8 and Day 20, compared with placebo
  shifts in eosinophils from high at baseline to normal: notable number of subjects
[1]
  Absolute Eosinophils shift H-N, number of subjects: 1
  Absolute Eosinophils shift L-N, number of subjects: — (“—” = 0)
  Absolute Eosinophils shift N-H, number of subjects: — (“—” = 0)
  Absolute Eosinophils shift N-L, number of subjects: — (“—” = 0)
  Absolute Reticulocytes shift H-N, number of subjects: — (“—” = 0)
  Absolute Reticulocytes shift L-N, number of subjects: — (“—” = 0)
  Absolute Reticulocytes shift N-H, number of subjects: — (“—” = 0)
  Absolute Reticulocytes shift N-L, number of subjects: — (“—” = 0)
  Eosinophils shift H-N, number of subjects: 3
  Eosinophils shift L-N, number of subjects: — (“—” = 0)
  Eosinophils shift N-H, number of subjects: — (“—” = 0)
  Eosinophils shift N-L, number of subjects: — (“—” = 0)
  Hematocrit shift H-N, number of subjects: — (“—” = 0)
  Hematocrit shift L-N, number of subjects: — (“—” = 0)
  Hematocrit shift N-H, number of subjects: — (“—” = 0)
  Hematocrit shift N-L, number of subjects: — (“—” = 0)
  Hemoglobin shift H-N, number of subjects: — (“—” = 0)
  Hemoglobin shift L-N, number of subjects: — (“—” = 0)
  Hemoglobin shift N-H, number of subjects: — (“—” = 0)
  Hemoglobin shift N-L, number of subjects: — (“—” = 0)
  Lymphocytes shift H-N, number of subjects: 1
  Lymphocytes shift L-N, number of subjects: 1
  Lymphocytes shift N-H, number of subjects: — (“—” = 0)
  Lymphocytes shift N-L, number of subjects: — (“—” = 0)
  Plasma Hemoglobin shift H-N, number of subjects: — (“—” = 0)
  Plasma Hemoglobin shift L-N, number of subjects: — (“—” = 0)
  Plasma Hemoglobin shift N-H, number of subjects: — (“—” = 0)
  Plasma Hemoglobin shift N-L, number of subjects: — (“—” = 0)
  Platelet Count shift H-N, number of subjects: — (“—” = 0)
  Platelet Count shift L-N, number of subjects: — (“—” = 0)
  Platelet Count shift N-H, number of subjects: 1
  Platelet Count shift N-L, number of subjects: — (“—” = 0)
  RBC shift H-N, number of subjects: — (“—” = 0)
  RBC shift L-N, number of subjects: — (“—” = 0)
  RBC shift N-H, number of subjects: — (“—” = 0)
  RBC shift N-L, number of subjects: — (“—” = 0)
  Segmented Neutrophils shift H-N, number of subjects: 1
  Segmented Neutrophils shift L-N, number of subjects: — (“—” = 0)
  Segmented Neutrophils shift N-H, number of subjects: — (“—” = 0)
  Segmented Neutrophils shift N-L, number of subjects: — (“—” = 0)
[2]
  Absolute Eosinophils shift H-N, number of subjects: — (“—” = 0)
  Absolute Eosinophils shift L-N, number of subjects: — (“—” = 0)
  Absolute Eosinophils shift N-H, number of subjects: 1
  Absolute Eosinophils shift N-L, number of subjects: — (“—” = 0)
  Absolute Neutrophils shift H-N, number of subjects: — (“—” = 0)
  Absolute Neutrophils shift L-N, number of subjects: — (“—” = 0)
  Absolute Neutrophils shift N-H, number of subjects: — (“—” = 0)
  Absolute Neutrophils shift N-L, number of subjects: — (“—” = 0)
  Absolute Reticulocytes shift H-N, number of subjects: — (“—” = 0)
  Absolute Reticulocytes shift L-N, number of subjects: — (“—” = 0)
  Absolute Reticulocytes shift N-H, number of subjects: 2
  Absolute Reticulocytes shift N-L, number of subjects: — (“—” = 0)
  Eosinophils shift H-N, number of subjects: 2
  Eosinophils shift L-N, number of subjects: — (“—” = 0)
  Eosinophils shift N-H, number of subjects: — (“—” = 0)
  Eosinophils shift N-L, number of subjects: — (“—” = 0)
  Hematocrit shift H-N, number of subjects: — (“—” = 0)
  Hematocrit shift L-N, number of subjects: — (“—” = 0)
  Hematocrit shift N-H, number of subjects: — (“—” = 0)
  Hematocrit shift N-L, number of subjects: — (“—” = 0)
  Hemoglobin shift H-N, number of subjects: — (“—” = 0)
  Hemoglobin shift L-N, number of subjects: 1
  Hemoglobin shift N-H, number of subjects: — (“—” = 0)
  Hemoglobin shift N-L, number of subjects: 1
  Lymphocytes shift H-N, number of subjects: — (“—” = 0)
  Lymphocytes shift L-N, number of subjects: 1
  Lymphocytes shift N-H, number of subjects: — (“—” = 0)
  Lymphocytes shift N-L, number of subjects: — (“—” = 0)
  Monocytes shift H-N, number of subjects: — (“—” = 0)
  Monocytes shift L-N, number of subjects: — (“—” = 0)
  Monocytes shift N-H, number of subjects: — (“—” = 0)
  Monocytes shift N-L, number of subjects: — (“—” = 0)
  Plasma Hemoglobin shift H-N, number of subjects: — (“—” = 0)
  Plasma Hemoglobin shift L-N, number of subjects: — (“—” = 0)
  Plasma Hemoglobin shift N-H, number of subjects: 2
  Plasma Hemoglobin shift N-L, number of subjects: — (“—” = 0)
  Platelet Count shift H-N, number of subjects: — (“—” = 0)
  Platelet Count shift L-N, number of subjects: — (“—” = 0)
  Platelet Count shift N-H, number of subjects: 1
  Platelet Count shift N-L, number of subjects: — (“—” = 0)
  RBC shift H-N, number of subjects: — (“—” = 0)
  RBC shift L-N, number of subjects: — (“—” = 0)
  RBC shift N-H, number of subjects: — (“—” = 0)
  RBC shift N-L, number of subjects: — (“—” = 0)
  RDW shift H-N, number of subjects: — (“—” = 0)
  RDW shift L-N, number of subjects: — (“—” = 0)
  RDW shift N-H, number of subjects: 1
  RDW shift N-L, number of subjects: — (“—” = 0)
  Segmented Neutrophils shift H-N, number of subjects: 1
  Segmented Neutrophils shift L-N, number of subjects: — (“—” = 0)
  Segmented Neutrophils shift N-H, number of subjects: — (“—” = 0)
  Segmented Neutrophils shift N-L, number of subjects: — (“—” = 0)
  WBC shift H-N, number of subjects: — (“—” = 0)
  WBC shift L-N, number of subjects: — (“—” = 0)
  WBC shift N-H, number of subjects: — (“—” = 0)
  WBC shift N-L, number of subjects: — (“—” = 0)
200 μg/kg, Baseline
  Absolute Neutrophils, Median: 3.00 thousands/mm^3
  Hematocrit, Median: 46.50%
  Hemoglobin, Median: 15.30 g/dL
  Lymphocytes, Median: 35.80%
  Platelet Count, Median: 263.0 thousands/mm^3
  WBC, Median: 5.60 thousands/mm^3
200 μg/kg, Day 8
  Absolute Neutrophils, Median: 3.60 thousands/mm^3
  Absolute Neutrophils, Median Change from Baseline: 0.45 thousands/mm^3
  Hematocrit, Median: 43.65%
  Hematocrit, Median Change from Baseline: −1.65%
  Hemoglobin, Median: 15.10 g/dL
  Hemoglobin, Median Change from Baseline: -0.20 g/dL
  Lymphocytes, Median: 32.40%
  Lymphocytes, Median Change from Baseline: −2.25%
  Platelet Count, Median: 242.0 thousands/mm^3
  Platelet Count, Median Change from Baseline: 1.0 thousands/mm^3
  WBC, Median: 6.65 thousands/mm^3
  WBC, Median Change from Baseline: 0.35 thousands/mm^3
200 μg/kg, Day 20
  Absolute Neutrophils, Median: 3.80 thousands/mm^3
  Absolute Neutrophils, Median Change from Baseline: 0.20 thousands/mm^3
  Hematocrit, Median: 43.80%
  Hematocrit, Median Change from Baseline: −1.50%
  Hemoglobin, Median: 14.50 g/dL
  Hemoglobin, Median Change from Baseline: -0.70 g/dL
  Lymphocytes, Median: 31.50%
  Lymphocytes, Median Change from Baseline: −1.80%
  Platelet Count, Median: 250.0 thousands/mm^3
  Platelet Count, Median Change from Baseline: −5 thousands/mm^3
  WBC, Median: 6.20 thousands/mm^3
  WBC, Median Change from Baseline: 0.40 thousands/mm^3
300 ug/kg group, at 20 days
  WBC concentration: relative increase
[3]
  Absolute Eosinophils shift H-N, number of subjects: — (“—” = 0)
  Absolute Eosinophils shift L-N, number of subjects: — (“—” = 0)
  Absolute Eosinophils shift N-H, number of subjects: — (“—” = 0)
  Absolute Eosinophils shift N-L, number of subjects: — (“—” = 0)
  Absolute Reticulocytes shift H-N, number of subjects: — (“—” = 0)
  Absolute Reticulocytes shift L-N, number of subjects: — (“—” = 0)
  Absolute Reticulocytes shift N-H, number of subjects: 1
  Absolute Reticulocytes shift N-L, number of subjects: — (“—” = 0)
  Eosinophils shift H-N, number of subjects: 1
